In PMC8809517, “Cofactor-independent RNA editing by a synthetic S-type PPR protein”:

T1: GFP-9S library array, motif 4 ND N98K;D124R (synthetic construct, N98K;D124R)
T1 chain: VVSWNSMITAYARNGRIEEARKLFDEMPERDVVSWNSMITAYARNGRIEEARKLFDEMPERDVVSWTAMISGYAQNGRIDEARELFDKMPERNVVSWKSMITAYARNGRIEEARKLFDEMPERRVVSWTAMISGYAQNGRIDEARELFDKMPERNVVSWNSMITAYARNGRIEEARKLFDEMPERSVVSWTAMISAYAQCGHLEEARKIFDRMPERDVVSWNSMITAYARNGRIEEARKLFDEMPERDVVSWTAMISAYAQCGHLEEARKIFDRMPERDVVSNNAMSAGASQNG

T2: GFP-9S library array, motif 4 ND N98G;D124Q (synthetic construct, N98G;D124Q)
T2 chain: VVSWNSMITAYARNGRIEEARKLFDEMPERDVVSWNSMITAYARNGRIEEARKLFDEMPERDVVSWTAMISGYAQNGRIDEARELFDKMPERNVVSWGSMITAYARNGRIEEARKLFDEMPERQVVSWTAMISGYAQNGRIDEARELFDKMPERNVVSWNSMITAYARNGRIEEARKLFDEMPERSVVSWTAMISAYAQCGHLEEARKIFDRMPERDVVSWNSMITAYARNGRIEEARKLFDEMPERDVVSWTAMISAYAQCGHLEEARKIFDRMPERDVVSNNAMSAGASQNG

T3: GFP-9S library array, motif 4 ND N98Y;D124M (synthetic construct, N98Y;D124M)
T3 chain: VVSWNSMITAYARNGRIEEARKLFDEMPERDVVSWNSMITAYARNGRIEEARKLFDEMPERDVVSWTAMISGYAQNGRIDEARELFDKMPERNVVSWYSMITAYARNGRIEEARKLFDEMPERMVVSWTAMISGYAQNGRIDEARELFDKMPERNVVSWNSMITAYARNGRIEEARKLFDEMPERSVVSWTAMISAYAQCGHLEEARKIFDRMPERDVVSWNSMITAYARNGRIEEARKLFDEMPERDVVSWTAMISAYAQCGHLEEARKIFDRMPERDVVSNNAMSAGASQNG

T4: GFP-9S library array, motif 4 ND N98T;D124P (synthetic construct, N98T;D124P)
T4 chain: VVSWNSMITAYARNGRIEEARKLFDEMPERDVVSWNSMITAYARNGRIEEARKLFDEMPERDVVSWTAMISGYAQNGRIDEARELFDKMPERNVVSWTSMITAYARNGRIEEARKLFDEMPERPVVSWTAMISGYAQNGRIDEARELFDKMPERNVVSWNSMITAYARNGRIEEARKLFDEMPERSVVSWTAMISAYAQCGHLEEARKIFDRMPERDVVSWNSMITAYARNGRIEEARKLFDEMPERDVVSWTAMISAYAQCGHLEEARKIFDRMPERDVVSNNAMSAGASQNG

T5: GFP-9S library array, motif 4 ND N98C;D124F (synthetic construct, N98C;D124F)
T5 chain: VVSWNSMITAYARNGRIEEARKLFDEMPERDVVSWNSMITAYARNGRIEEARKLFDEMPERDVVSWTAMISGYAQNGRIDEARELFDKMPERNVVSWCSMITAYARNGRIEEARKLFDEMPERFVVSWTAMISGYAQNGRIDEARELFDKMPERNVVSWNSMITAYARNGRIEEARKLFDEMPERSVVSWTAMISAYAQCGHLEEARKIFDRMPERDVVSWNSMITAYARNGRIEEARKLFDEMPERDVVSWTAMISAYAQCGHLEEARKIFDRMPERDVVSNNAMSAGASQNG


Columns and labels:
Test in all cases: high-throughput RNA pulldown from lysate on Ni-NTA beads; HRP: 50 mM Tris pH 8, 150 mM NaCl, 1 mM beta-mercaptoethanol, 50 ug/ml BSA, 3 ug/ml yeast RNA, 0.5% heparin; ITC and FP: Tris pH 8, 200 mM KCl, 5% glycerol; MST: 50 mM Tris pH 8, 200 mM NaCl, 1 mM DTT, BSA, heparin, 0.05% Tween 20
Details in all cases: tags: N-terminal His-eGFP
[1] = molecular target: T1, GFP-9S library array, motif 4 ND …
[2] = molecular target: T2, GFP-9S library array, motif 4 ND …
[3] = molecular target: T3, GFP-9S library array, motif 4 ND …
[4] = molecular target: T4, GFP-9S library array, motif 4 ND …
[5] = molecular target: T5, GFP-9S library array, motif 4 ND …

Binder	Kd ([1]; label: 5' Cy5)	Kd ([2]; label: 5' Cy5)	Kd ([3]; label: 5' Cy5)	Kd ([4]; label: 5' Cy5)	Kd ([5]; label: 5' Cy5)	Kd ([1]; label: 5' IRDye 800CW)	Kd ([2]; label: 5' IRDye 800CW)	Kd ([3]; label: 5' IRDye 800CW)	Kd ([4]; label: 5' IRDye 800CW)	Kd ([5]; label: 5' IRDye 800CW)
AUUAGACGUGA (ssRNA) [Cy5-rpoA-G]	55.5 nM	109 nM	36.2 nM	90.3 nM	100 nM	–	–	–	–	–
AUUAAACGUGA (ssRNA) [IR-rpoA-A]	–	–	–	–	–	139 nM	150 nM	124 nM	107 nM	203 nM
AUUAUACGUGA (ssRNA) [IR-rpoA-U]	–	–	–	–	–	66.9 nM	142 nM	154 nM	113 nM	317 nM
AUUACACGUGA (ssRNA) [Cy5-rpoA]	42.9 nM	96.6 nM	40.8 nM	92.4 nM	126 nM	–	–	–	–	–
